B1: minF1; a variant is named by its letters at N, in order (parent)
chain: GAGACCGCAACTGAAAAGTTGTTANNNNAANGNNNGGTTGAATTTCTGCACGTAGAAGCAAAAGGC
B2: minF1; a variant is named by its letters at N, in order (parent)
chain: GAGACCGCAACTGAAAAGTTGTTNNNNAANNNNNGGNTNAATTTCTGCACGTAGAAGCAAAAGGC
B3: minF1; the commonest letter at each place (parent)
chain: GAGACCGCAACTGAAAAGTTGTTATCAGAAATGGATGGGTTGAATTTCTGCACGTAGAAGCAAAAGGC
B4: minF1; a variant is named by its letters at N, in order (parent)
chain: GAGACCGCAACTGAAAAGTTGTTATCAGAAATGNNNGGNTNNNTTTCTGCACGTAGAAGCAAAAGGC

Variants of: B1
Experiment: fraction ligated after 30 min (ligated reads / total reads); higher = more ligase activity
Conditions: with F1*subA RNA substrate (template-directed ligation), 42 °C
Outline: (§1)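 Ligated and unligated RNAs from a pool of minimized ligase ribozyme variants were separated on gels, reverse transcribed with barcoded primers and sequenced on a MiSeq. Core bases needed quality ≥30 to pass the filter. Each variant's fraction ligated was then taken as ligated reads over total reads.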

Variant	fraction ligated
TCGATGAT T38G G40T A41G	0.576
CAGATGAT T38G G40T A41G	0.0186
CAGATGTG	0.00446
TAAAGATG A30T	0.021
TAGAGATG A30T	0.0449
CAGATGAT A24T	0.00819
CGAAGATG A30T	0.0292
CAAAGATG A24T A30T	0.0148
TCAGAGGA G32T T38G G40T	0.00434
TCAGAGAT G32T	0.00472
TCAGAGGA G32T T38G G40T A41G	0.00714
TCAGAGGT G32T T38G G40T A41G	0.0316
TCAGTGTG	0.00427
CAGAGATG A24T A30T	0.0149
CAAAGATG T23A A24T A30T	0.0275
TCAGAGGA G32T G36T T38G T39G G40T A41T	0.00781
TCAGAGGA G32T G36T T38G T39G G40T A41T A42T	0.00119
TCAGAGGA G32T G36T T38G T39G G40T A41T A42G	0.00154
TCAGAGGA G32T G36T T38G T39G G40T A41T A42C	0.00198
CGAAGATG A24T A30T	0.0664
CAGATGAG A24T	0.00352
TCAGTGAG	0.00523
TCAGTGAT	0.0235
AGAAGATG A24T A30T	0.00936

Variant	fraction ligated
TCGATATG	0.0107
CAGATATG	0.00456
TCAGTGAT T38G G40T A41G	0.392
TCAGAGGA G32T	0.0037
TCGAGATG	0.00545
TCAGGATG	0.00705
CAGAGATG A30T	0.0134
CAGATGAT T23A A24T T38G G40T	0.0102
CAGATATG T23A A24T	0.00616
CAGATGAT T23A A24T	0.0249
TAGAGATG	0.00517
TAGATATG	0.00408
CAGAGATG A24T	0.00326
TCAGAGAG G32T	0.011
TCAGAGTG G32T	0.00848
TCGAGATG A30T	0.205
CAGATGAT A24T T38G G40T	0.00536
CAGATGAT	0.0096
CAGATGAG	0.00664
CAGATGAG T23A A24T	0.00151
TCAGAGGA G32T G36T T38G G40T A41G	0.0306
TCGATGTG	0.0076
CAGATGAT T23A A24T T38G G40T A41G	0.0927
TGAAGATG A30T	0.054

Variant	fraction ligated
TCAGTGAT T38G G40T	0.0275
TCAGAGGT G32T T38G G40T	0.00529
TCGATGAT T38G G40T	0.0543
TCAGAGAG	0.00214
TCAGAGAT	0.00503
TCAGAATG G32T	0.00623
TCAGAGAT G32T T38G G40T A41G	0.0724
TCAGAGGA G32T G36T T38G G40T	0.0174
TAGATGAT T38G G40T A41G	0.025
TCAAGATG A30T	0.111
TCAATATG	0.00928
TCAAGATG	0.00472
CAGAGATG T23A A24T A30T	0.0668
TCAGAATG	0.00903
TCAGAGAT T38G G40T	0.004
TCAGAGTG	0.0048
CAGAGATG	0.00233
TCAGAGAT T38G G40T A41G	0.0517
CAGATGAT T38G G40T	0.00757
CAGATGTG T23A A24T	0.00275
CAAAGATG A30T	0.00974
TAGATGAT T38G G40T	0.00516
TAGATGTG	0.00059
CAGATGAT A24T T38G G40T A41G	0.0273

Variant	fraction ligated
AGAAGATG A30T	0.0065
TCAGGATG A30T	0.163
TCAATGAT T38G G40T A41G	0.302
CAGATGTG A24T	0.00498
CGAAGATG T23A A24T A30T	0.0868
TCAGTATG	0.011
AGAAGATG A24C A30T	0.0111
CAGAGATG T23A A24T	0.00547
TCAGAGGT G32T	0.00299
TAGATGAG	0.00428
TAGATGAT	0.00267
TCAATGAT T38G G40T	0.0188
TCAGAGAT G32T T38G G40T	0.00839
TCAATGTG	0.00417
CAGATATG A24T	0.00546
AGAAGATG T23A A24T A30T	0.00339
AGAAGATG T23A A24C A30T	0.00911
TCAATGAT	0.0159
TCAATGAG	0.00836
TCGATGAG	0.00384
TCGATGAT	0.0366
TCAGAGGG G32T	0.00695

Variants of: B2
Experiment: as above
Conditions: with F1*subA RNA substrate (template-directed ligation), 42 °C
Outline: as §1

Variant	fraction ligated
AAGATGGAGTG	0.000852
TAGATGGATGT A40G	0.00383
AAGATGATGTG	0.0055
TAGAGGATGTG	0.00132
AAGATGGATGT	0.0029
CAGAGGATGTG T23A	0.00547
AAAAGGATGTG A29T	0.00415
CAAAGGATGTG T23A A29T	0.00472
CAAAGGATGTG A29T	0.00429
CAGATGGAGTG	0.00344
CAGATGGATGT A40G	0.0159
TAGATGGAGTG	0.0023
TAGAGGATGTG T23A	0.00277
AAGAGGATGTG	0.00256
TAGAGGATGTG A29T	0.0101
TAAAGGATGTG T23A A29T	0.00526

Variant	fraction ligated
CAGATGGATGT	0.00272
TAGAGGATGTG T23A A29T	0.00989
AAGATGGATGT A40G	0.00604
CAGATGATGTG T23A	0.00284
CAGATGATGTG	0.00402
CAGAGGATGTG T23A A29T	0.00891
CAGAGGATGTG	0.00332
TAGATGATGTG	0.00308
TAGATGATGTG T23A	0.00371
TAAAGGATGTG A29T	0.00359
TAGATGGAGTG T23A	0
AAGAGGATGTG A29T	0.00554
CAGAGGATGTG A29T	0.00872
TAGATGGATGT	0.00222
CAGATGGAGTG T23A	0.00336

Variants of: B3
Experiment: as above
Conditions: with F1*subA RNA substrate (template-directed ligation), 42 °C
Outline: as §1

Variant	fraction ligated
A43G A44G	0.00367
A43G A44T	0.00618
A43G A44C	0.00393
A43T A44G	0.00469
A43T A44T	0.00531
A43T A44C	0.00191
A43C A44T	0.00456
A43C A44G	0.00638
A43T	0.13
A43G	0.0856
A44C	0.646
A44T	0.794
A44G	0.79
unchanged	0.761

Variants of: B4
Experiment: as above
Conditions: with F1*subA RNA substrate (template-directed ligation), 42 °C
Outline: as §1

Variant	fraction ligated
GATGTTC	0.00331
GATGTTG	0.00218
GATGTTA	0.0473
GATGTTT	0.000955
ATGTGAA C26A A27G G28A A31T T32G	0.0728
GATGTAT	0.00414
GATGTAG	0.00461
GATGTAA	0.175
GATGTAC	0.00239
ATGTGAA G28A A31T T32G	0.52
ATGTGAA	0.0281
ATGTGAA A24T T25C C26A A27G G28A A31T T32G	0.0261
ATGTGAA A31T T32G	0.65
ATGTGAA T32G	0.0137
GATGTCA	0.0146
GATGTCG	0.00256
GATGTCT	0.00139
GATGTCC	0.00223
GATTGAA	0.023
GATGTGC	0.00735
GATGTGA	0.844
GATGTGT	0.00586
GATGTGG	0.00509
ATGTGAA A27G G28A A31T T32G	0.733
GTGTGAA	0.0136
ATGTGAA T25C C26A A27G G28A A31T T32G	0.0163
GAGTGAA	0.00382
ATGTGAA T23A A24T T25C C26A A27G G28A A31T T32G	0.228

— the supplement of paper PMC6755084
